Reference: PMC6677171 (Life Science Alliance, 2019)
Blank lines part the entries; values can stand above or below the binder they belong to.

B1: Mis19 C-terminal peptide (residues 97–112) F102S (peptide, UniProt O42995 97-112, looked up)
peptide: LHNRVSLRRNVRAVKM
notes: the text ties the value to the F102S (eic1-1) mutant; also called F102 mutant; eic1-1 mutation
B2: Mis19^1–44 peptide (peptide, UniProt O42995 1-44, looked up)
peptide: MDLMPLEKARAIEIAFDNVFHNTKIPDNLQQFDAILKRLERRRF
notes: Mis19 (Eic1), S. pombe, residues 1–44 (motifs 1 and 2); also called wild-type peptide
B3: Mis18 (S. pombe) (natural protein, UniProt Q9P802 1-194, looked up)
chain: MSQTETSHSGYIDFKKESQPSVFQCKKCFQIVGDSNAWVISHREYLSFTLSDAVENSVRVEDTFKRSDDGLCVYSELSCTRCNEVIGKVYNSTPIYLDDIRDMYTFSMDKLQAYQLGNKTVNPEGLTRYQVDLEMREDIIKLKSFCLSLYEKFELHDETLRSVKETISSLKKPKIEGKEGKKEKARTYSKRTRK
notes: Mis18, S. pombe, N-terminal YIPPEE domain and C-terminal coiled coil; 'Full-length' is said of the co-expressed complex; source: insect cells; co-expressed with Mis16 and Mis19 and co-purified, or purified alone for the pull-down
B4: Mis19 (S. pombe), full length (natural protein, UniProt O42995 1-112, looked up)
chain: MDLMPLEKARAIEIAFDNVFHNTKIPDNLQQFDAILKRLERRRFIPTENQKPRVYETELLVLRFREFGVKDNHNHPINLHSLRSKSLIRAQGKKLDLHNRVFLRRNVRAVKM
notes: Mis19 (also known as Eic1), S. pombe; only handled in complex; also called Eic1; source: insect cells (MultiBac), co-expressed with Mis16 and Mis18, co-purified
B5: Mis19C (Mis19 residues 52–112) (domain or fragment, S. pombe, UniProt O42995 52-112, looked up)
chain: PRVYETELLVLRFREFGVKDNHNHPINLHSLRSKSLIRAQGKKLDLHNRVFLRRNVRAVKM
notes: holds sites A, B and C; Cannot be expressed and purified without Mis16; also called Mis19^52-C; N-terminal truncation of Mis19; source: insect cells, co-expressed with Mis16

How the values were obtained:
[1] = molecular target: T1, Mis16 (S. pombe), full length, affinity tag removed (S. pombe, UniProt O94244 1-430); assay: ITC; competition: Mis16 preincubated with one peptide (H4α1 or Mis19α2) before titration with the second; apparent KD; settings: both partners purified
T1 construct: Mis16, S. pombe, WD40-repeat protein, homologue of human RbAp46/48; codon-optimised gene; Used where the methods or text say the tag was removed (crystals, MALLS of the untagged complex) and, by the general purification protocol, for ITC and AUC; source: insect cells (baculovirus made in Sf21, expressed in Hi5), purified (Strep-Tactin, anion exchange, TEV cleavage, SEC); not shown: double …

[2] = molecular target: T1, Mis16 (S. pombe), full length, affinity …; assay: ITC; iTC200, 30°C; 50 mM Tris pH 7.5, 100 mM NaCl, 4% glycerol, 0.5 TCEP; 26 μM protein in the cell, 260 μM peptide injected; settings: both partners purified
Mis18 (S. pombe) = molecular target: B3; assay: SEC; competition: preformed Mis16–Mis18–Mis19 complex challenged with peptides from the Mis19 N terminus; dissociation seen as separate Mis16–19 and Mis18 peaks; settings: both partners purified
[3] = molecular target: the molecule itself; assay: AUC; sedimentation velocity of the purified co-expressed Mis16–Mis18–Mis19 complex at two concentrations; 150 mM NaCl, 25 mM Tris–HCl pH 8.0, 2 mM TCEP; 50,000 rpm, 4°C; c(s) in SEDFIT
[4] = molecular target: T1, Mis16 (S. pombe), full length, affinity …; assay: as above; settings: both partners purified
[5] = molecular target: T1, Mis16 (S. pombe), full length, affinity …; assay: SEC-MALS; 200 μg of purified Mis16–Mis19C complex on Superose 6 Increase 10/300 coupled to a Wyatt Dawn 8+ MALS system; settings: both partners purified

apparent KD with Mis16 preincubated with H4α1 [1]: 2.5 µM
Kd [2]: 8 nM
Binder: LHNRVFLRRNVRAVKM (peptide, UniProt O42995 97-112, looked up, also called Mis19 site C peptide) [Mis19α2 peptide (Mis19 residues 97–112)]

Binder: B1
Kd [2]: ~301 nM

Binder: B2
binding result (Mis18 (S. pombe)): binds

Binder: B3
stoichiometry N [3]: 4

Binder: B4
binding result [4]: binds

Binder: B5
stoichiometry N [5]: 1
